This sample holds only a part of the variants without activity.

B1: TPR 5TU (parent)
chain: GGAUCUUCUCGAUCUAACAAAAAAGACAAAUCUGCCACAAAGCUUGAGAGCAUCUUCGGAUGCAGAGGCGGCAGCCUUCGGUGGCGCGAUAGCGCCAACGUUCUCAACUAUGACACGCAAAACGCGUGCUCCGUUGAAUGGAGUUUAUCAUG

The variants in the data set derive from B1. Briefly: polymerase ribozyme fitness, log enrichment relative to wild type (log ratio); higher = more active; in vitro selection for triplet polymerase activity. The method in brief: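 Mutant libraries were PCR-built and transcribed for each subunit of a heterodimeric triplet polymerase ribozyme and selected for one round in triplicate at −7 °C, frozen, before gel excision of extended constructs and streptavidin-bead capture. Input and output libraries were Illumina-sequenced, keeping genotypes with ≥10 input reads and ≥1 read per output. Fitness is a logarithmic ratio of genotype to wild-type enrichment, in base 2, using inverse-variance-weighted replicate averages.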
As to GGAUCUUCUCGAUCUAACAAAAAAGACAAAUCUGCCACAAAGCUUGAGAGCAUUUUCGGAUGCGGAGGCGGCAGCCUUCGGUGGCGCGAUAGCGCCAACGUUCUCAACUAUGACAGGCAAAACGCGUGCUCCGUUGAAGGGAGUUUAUCAUG, the “polymerase ribozyme fitness (log ratio)” value was at most -4.2.
For GGAUCUUCUCGAUCUAACAAAAAAGACAAAUCUGCCACAAAGCUUGAGAGCAUUUUCGGAUGCAGAGGCGGCAGGCUUCGGUGGCGCGAUAGCGCCAACGUUCUCAACUAUGACACGCAAAACGCGUGCUCCGUUGAAUGGAGUUUAUCAUG, the “polymerase ribozyme fitness (log ratio)” value was -3.81.
Consider GGAUCUUCUCGAUCUAACAAAAAAGACAAAUCUGCCACAAAGCUUGAGAGCAUUUUCGGAUGCAGAGGCGGCAGCCUUCGGUGGCGCGAUAGCGUCAACGUUCUCAACUAUGACACGCAAAACGCGUGCUCCCUUGAAUGGAGUUUAUCAUG, for which the “polymerase ribozyme fitness (log ratio)” value is -2.19.
The figure for GGAUCUUCUCGAUCUAACAAAAAAGACAAAUCUGCCACAAAGCUUGAGAGCAUUUUCGGAUGCAGAGGCGGCAGCCUUCGGUGGCGCGAUAGUGCCAACGUUCUGAACUAUGACACGCAAAACGCCUGCUCCGUUGAAUGGAGUUUAUCAUG is -2.01.
The figure for GGAUCUUCUCGAUCUAACAAAAAAGACAAAUCUGCCACAAAGCUUGAGAGCAUUUUCGGAUGCAGAGGCGGCAGCCUUCGGUGGCGCGAUAGCGCCAACGUUCUCAACUAUGACUCGCAAAACGCGUGCUCCGUUGAAUGGAGUUUAUCAUG is -2.4.
As for GGAUCUUCUCGAUCUAACAAAAAAGACAAAUCUGCCACAAAGCUUGAGAGCAUUUUCGGAUGCAGAGGCGGCAGCCUUCGGUGGCGCGAUAGCGCAGACGUUCUCAACUAUGACACGCAAAACGCGUGCUCCGUUGAAUGGAGUUUAUCAUG, the “polymerase ribozyme fitness (log ratio)” value is -1.12.
For GGAUCUUCUCGAUCUAACAAAAAAGACAAAUCUGCCACAAAGCUUGAGAGCAUUUUCGGAUGCAGAGGCGGCAGCCUUCGGUGGCGCGAUAGCGCCAACGUUCUCAACUAUGACACGCAAAUCGCGUGCUCCGUUGAAUGGAGUUUAUCAUG, the “polymerase ribozyme fitness (log ratio)” value was found to be 0.0261.
Under GGAUCUUCUCGAUCUAACAAAAAAGACAAAUCUGCCACAAAGCUUGAGAGCAUUUUCGCUUGCAGCGGCGGCAGCCUUCGGUGGCGCGAUAGCGCCAACGUUCUCAACUAUGACACGCAAAACGCGUGCUCCGUUGAAUGGAGUUUAUCAUG stands at most -4.2; under GGAUCUUCUCGAUCUAACAAAAAAGACAAAUCUGCCACAAAGCUUGAGAGCAUUUUCGGAUGCAGAGGCGGCAGCCUUCGGUGGCGCGAUAGCGCUAACGUUCUCAACUAUGACACGCAAAACGCGUGCUCCGUUGAAUGGAGUUUAUCAUG, -0.41.
Regarding GGAUCUUCUCGAUCUAACAAAAAAGACAAAUCUGCCACAAAGCUUGAGAGCAUUUUCGGAUGCAGAGGCGGCAGCCUUCGGUGGCGCGAUAGCGCGAACGUUCUCAACUAUGACACGCAAAACGCGUGCUCCGUUGAAUGGAGUUUAUCAUG, the “polymerase ribozyme fitness (log ratio)” value was -0.994.
Regarding GGAUCUUCUCGAUCUAACAAAAAAGACAAAUCUGCCACAAAGCUUGAGAGCAUUUUCGGAUGCAGAGGCGGCAGCCUUCGGUGGCGCGAUAGCGCCAACGUUAUCAACUAUGACACGCAAAACGCGUGCUCCGUUGAAUGGAGUUUAUCAUG, the “polymerase ribozyme fitness (log ratio)” value was -2.22.
The figure for GGAUCUUCUCGAUCUAACAAAAAAGACAAAUCUGCCACAAAGCUUGAGAGCAUGUUCGGAUGCAGAGGCGGCAGCCUUCGGUGGCGCGAUAGCGCCAACGUUCUCAACUAUGACACGCAAAACGCGUGCUCCGUUGAAUGGAGUUGAUCAUG is -2.99; for GGAUCUUCUCGAUCUAACAAAAAAGACAAAUCUGCCACAAAGCUUGAGAGCAUUUUCGGAUGCAGAGGCGACAGCCUUCGGUGGCGCGAUAGCGCCUACGUUCUUCACUAUGACACGCAAAACGCGUGCUCCGUUGAAUGGAGUUUAUCAUG it is at most -4.2.
The figure for GGAUCUUCUCGAUCUAACAAAAAAGACAAAUCUGCCACAAAGCUUGAGAGCAUUUUCGGAUGCAGAGGCGGCAGCCUUCGGUGGCGCGAUCUCGCCAACGUUCUUAACUAUGACACGCAAAACGCGUGCUCCUUUGAAUGGAGUUUAUCAUG is at most -4.2; for GGAUCUUCUCGAUCUAACAAAAAAGACAAAUCUGCCACAAAGCUUGAGAGCAUUUUCGGAUGCAGAGGCGGCAGUCUUCGGUGCCGCGAUAGCGCCAUCGUUCUCAACUAUGGCACGCAAAACGCGUGUUCCGUUGAAUGGAGUUUAUCAUG it is at most -4.2.
Regarding GGAUCUUCUCGAUCUAACAAAAAAGACAAAUCUGCCACAAAGCUUGAGAGCAUUUUUGGAUGCAGAGGCGGCAGCCUUCGGUGGCGCGAUAGCGCCAACCUUCUCAACUAUGACACGCAAAACGCGUGCUCCGUUGAAUGGAGUUUAUCAUG, the “polymerase ribozyme fitness (log ratio)” value is at most -4.2.
Take GGAUCUUCUCGAUCUAACAAAAAAGACAAAUCUGCCACAAAGCUUGAGAGCAUUUUCGGAUGCAGAGGCGGCAGCCUUCGGUGGCGCGCUAGCGCCAACGUUCUCAACUAUGACACGCAAAACGCGUGCUUCGUUGAAUGGAGUUUAUCAUG: the “polymerase ribozyme fitness (log ratio)” value was determined as 0.237.
Turning to GGAUCUUCUCGAUCUAACAAAAAAGACAAAUCUGCCACAAAGCUUGAGAGCAUUUUCGGAUGUAGAGGCGGCAGCCUUCGGUGGCGCGAUAGCUCCAACGUUCUCAACUAUGACACGCAAAACGCGUGCUCCGUUGAAUGGAAUUUAUCAUG, the “polymerase ribozyme fitness (log ratio)” value was -2.26.
Under GGAUCUUCUCGAUCUAACAAAAAAGACAAAUCUGCCACAAAGCUUGAGAGCAUUUUCGGAUGCAGUGGCGGCAGCCUUCGGUGGUGCGAUAGCGCCAACGUUCUCAACUAUGACACGCAAAACGCGUGCUCCGUUGAAUGGAGUUUAUCAUG stands at most -4.2.

Values taken from the RNAGym collection of RNA variant scans (doi:10.1073/pnas.2313332121).
